Reference: paper PMC10950897 (2024)

Target: His6-p97 WT (human, UniProt P55072 1-806)
Experiment: SPR

Sequence of His6-p97 WT (P55072 whole entry): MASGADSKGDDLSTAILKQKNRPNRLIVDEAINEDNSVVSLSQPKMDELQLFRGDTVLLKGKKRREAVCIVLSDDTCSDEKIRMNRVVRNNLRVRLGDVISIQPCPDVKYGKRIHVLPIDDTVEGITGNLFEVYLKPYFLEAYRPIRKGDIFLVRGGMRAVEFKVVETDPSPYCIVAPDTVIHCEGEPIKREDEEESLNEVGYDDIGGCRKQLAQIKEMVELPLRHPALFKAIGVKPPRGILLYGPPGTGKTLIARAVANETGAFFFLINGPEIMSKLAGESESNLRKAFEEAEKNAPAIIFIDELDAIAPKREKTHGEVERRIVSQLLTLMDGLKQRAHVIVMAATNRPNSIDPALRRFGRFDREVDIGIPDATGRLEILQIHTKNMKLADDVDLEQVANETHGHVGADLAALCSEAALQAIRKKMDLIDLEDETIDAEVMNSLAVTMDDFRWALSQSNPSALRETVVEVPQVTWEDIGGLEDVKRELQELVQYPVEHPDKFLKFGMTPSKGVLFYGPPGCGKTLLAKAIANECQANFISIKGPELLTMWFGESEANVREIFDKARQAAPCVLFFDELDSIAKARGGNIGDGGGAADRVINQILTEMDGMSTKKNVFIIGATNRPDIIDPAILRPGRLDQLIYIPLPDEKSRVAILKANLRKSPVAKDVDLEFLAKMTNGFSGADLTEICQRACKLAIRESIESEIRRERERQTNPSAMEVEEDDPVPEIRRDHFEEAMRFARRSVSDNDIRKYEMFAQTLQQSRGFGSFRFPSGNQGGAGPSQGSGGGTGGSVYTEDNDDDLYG

B1: Strep-HA-VCF1 WT (natural protein)
chain: not shown
- Kd: 10.9 nM
